Laboratory results from patent US20110059095A1 (Regeneron, published 2011).
Read-outs that look alike come from different tables or passages of the source. One block for each binder: values may come before it. Where no end group is shown, it is not given here. The star is where a group is joined. Biotin = O=C1N[C@H]2[C@H](CS[C@H]2CCCCC(=O)*)N1

Legend:
[1] = target: T1, Peptide A (human PAR-2), unbiotinylated (Human); assay: SPR, antibody captured
T1 construct: also called Peptide A No Biotin
T1 peptide: GTNRSSKGRSLIGKVDGT
Experimental: (§1) Equilibrium dissociation constants (KD values) for antigen binding to selected purified PAR-2 antibodies were determined by surface kinetics using a real-time surface plasmon resonance biosensor assay. Antibody was captured on either a rabbit anti-mouse IgG polyclonal antibody (GE Healthcare, Piscataway, N.J.) surface or a goat anti-human IgG polyclonal antibody (Jackson Immuno Research Lab, West Grove, Pa.) surface created through direct amine chemical coupling to a BIACORE™ CM5 sensor chip to form a captured antibody surface. […] Antigen-antibody binding and dissociation were monitored in real time at room temperature. Kinetic analysis was performed to calculate KD and half-life of antigen/antibody complex dissociation (Table 10). For those antibodies where no T_{1/2} value is shown, steady state analysis was used to calculate the KD value. NB: no binding observed under current experimental conditions. ND: not determined.

[2] = target: T2, Peptide B (human PAR-2), unbiotinylated (Human); assay: SPR, antibody captured
T2 construct: also called Peptide B No Biotin
T2 peptide: SLIGKVDGTSHVTG
Experimental: as §1

full length human PAR-2 [3] = target: T3, full length human PAR-2 (human, UniProt P55085 26-397); assay: cell ELISA, 10 ug/ml antibody
T3 construct: overexpressed on HEK293-derived 293/D9 cells; also called 293/D9/hPAR-2rec cells
T3 sequence (P55085 26-397 G138A limits assumed): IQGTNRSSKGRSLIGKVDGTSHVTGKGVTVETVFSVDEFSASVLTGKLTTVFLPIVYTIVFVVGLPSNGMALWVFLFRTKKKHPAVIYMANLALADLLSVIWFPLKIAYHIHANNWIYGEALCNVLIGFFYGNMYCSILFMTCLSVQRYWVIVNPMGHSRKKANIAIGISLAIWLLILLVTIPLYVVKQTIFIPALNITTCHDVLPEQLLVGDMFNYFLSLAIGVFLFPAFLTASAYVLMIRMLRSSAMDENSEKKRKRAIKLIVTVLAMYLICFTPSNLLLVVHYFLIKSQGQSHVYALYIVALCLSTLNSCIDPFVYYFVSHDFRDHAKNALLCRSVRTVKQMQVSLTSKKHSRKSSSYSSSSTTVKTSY
Text: HEK293 cells were transfected with an NF-κB-luciferase-IRES-eGFP reporter plasmid. […] A clonal cell line, named D9, having low background levels of luciferase activity and high levels of eGFP when induced with IL-1β was made by a series of successive sorts of cell populations using flow cytometry. The 293/D9 cell line was then separately transfected with human PAR-2 or mouse PAR-2 to create the stable cell lines 293/D9/h PAR-2rec and 293/D9/m PAR-2rec, respectively.
Binding of anti-PAR-2 antibodies to 293/D9/hPAR-2rec cells was determined by ELISA. 293/D9 and 293/D9/hPAR-2rec cells were plated at a density of 5×10⁴ cells/well in media and incubated overnight at 37° C. and 5% CO₂. Purified antibody was added to the cells to a final concentration of 10 μg/ml and incubated at room temperature for one hour. Cells were then fixed and washed before detection of bound antibodies with HRP conjugated anti-mouse IgG and developed by standard colorimetric response using TMB substrate. Absorbance was read at OD₄₅₀ for 0.1 second.

[4] = target: T4, Peptide B (human PAR-2), C-terminal biotinylated (Human, not fully specified); assay: peptide ELISA
T4 construct: also called Peptide B C-Term
T4 peptide: SLIGKVDGTSHVTGGGGGS-biotin
Experimental: (§2) Anti-PAR-2 antibodies were tested for their ability to bind to the PAR-2 peptides. Various PAR-2 Peptides (Table 3) were coated onto 96-well plates at a concentration of 2 μg/ml and incubated overnight followed by blocking in a suitable blocking agent for one hour. […] Purified anti-PAR-2 antibodies were added to the plate coated with PAR-2 peptides to a final concentration ranging from 0.2 to 2.0 μg/ml and incubated for one hour at room temperature. Detection of bound antibodies was determined with Horse-Radish Peroxidase (HRP) conjugated anti-mouse or human IgG (Jackson Immuno Research Lab, West Grove, Pa.) and developed by standard colorimetric response using tetramethylbenzidine (TMB) substrate. Absorbance was read at OD₄₅₀ for 0.1 second.

[5] = target: T5, Peptide B (human PAR-2), N-terminal biotinylated (Human); assay: peptide ELISA
T5 construct: also called Peptide B N-Term
T5 peptide: Biotin-GGGGSSLIGKVDGTSHVTG
Experimental: as §2

[6] = target: T1, Peptide A (human PAR-2), unbiotinylated; assay: peptide ELISA
Experimental: as §2

[7] = target: T6, Peptide A (human PAR-2), N-terminal biotinylated (Human, N-terminal biotin via G4S linker); assay: peptide ELISA
T6 construct: also called Peptide A N-Term
T6 peptide: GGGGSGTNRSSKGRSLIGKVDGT
Experimental: as §2

[8] = target: T7, Peptide A (human PAR-2), C-terminal biotinylated (Human, C-terminal biotin via G4S linker); assay: peptide ELISA
T7 construct: also called Peptide A C-Term
Experimental: as §2

[9] = target: T8, Peptide C (human PAR-2), N-terminal biotinylated (Human); assay: peptide ELISA
T8 construct: also called Peptide C N-Term
T8 peptide: Biotin-GGGGSSLIGKV
Experimental: as §2

[10] = target: T2, Peptide B (human PAR-2), unbiotinylated; assay: peptide ELISA
Experimental: as §2

[11] = target: T9, Peptide C (human PAR-2), C-terminal biotinylated (Human); assay: peptide ELISA
T9 construct: also called Peptide C C-Term
T9 peptide: SLIGKVGGGGS-biotin
Experimental: as §2

full length human PAR-2 [12] = target: T3, full length human PAR-2; assay: cell-based or functional assay
[13] = target: T4, Peptide B (human PAR-2), C-terminal …; assay: SPR, peptide immobilized
Experimental: (§3) In another series of experiments, equilibrium dissociation constants (KD values) for purified antibody binding to selected biotinylated and unbiotinylated forms of PAR-2 peptides were determined by surface kinetics using a real-time surface plasmon resonance biosensor assay. Neutravidin (Pierce, Rockford, Ill.) was covalently coupled to the surface of a Biacore™ C1 chip or CM5 chip using amine coupling chemistry. Biotinylated (N-Term or C-Term) PAR-2 peptides (Peptides A and B) were immobilized on the surface via the high affinity binding interaction between biotin and the amine coupled Neutravidin.
(§4) In a first experiment using this format, varying concentrations (ranging from 5 to 100 μg/ml) of purified antibody were injected at a rate of 50 μl/min over a surface coated with immobilized peptide at low-density (<1RU) for 300 seconds. Antibody-peptide binding and dissociation was monitored in real time 25° C.

[14] = target: T7, Peptide A (human PAR-2), C-terminal …; assay: SPR, peptide immobilized
Experimental: as §3, §4

[15] = target: T10, Peptide F (monkey PAR-2), N-terminal biotinylated (Monkey (Macaca mulatta), N-terminal biotin via G4S linker); assay: SPR, antibody captured
T10 construct: also called Peptide F N-Term
T10 sequence (peptide, as listed by the source): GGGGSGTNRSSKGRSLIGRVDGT
Experimental: as §1

full length human PAR-2 [16] = target: T3, full length human PAR-2; assay: cell-based or functional assay; remark: listed apart in the source
[17] = target: T1, Peptide A (human PAR-2), unbiotinylated; assay: peptide ELISA titration
Experimental: as §2
(§5) In another experiment, selected anti-PAR-2 antibodies cloned onto human IgG4 were tested for binding to unbiotinylated and biotinylated forms of PAR-2 peptides (Peptides A, E, F and G; as described above). […] Absorbance values at 450 nm were analyzed using a sigmoidal dose-response model in GraphPad Prism (GraphPad Software, Inc., La Jolla, Calif.) and EC₅₀ values were reported (Table 9). EC₅₀ values are defined as the antibody concentration required to achieve 50% maximal binding to PAR-2 peptide.

[18] = target: T6, Peptide A (human PAR-2), N-terminal …; assay: peptide ELISA titration
Experimental: as §2, §5

[19] = target: T7, Peptide A (human PAR-2), C-terminal …; assay: peptide ELISA titration
Experimental: as §2, §5

[20] = target: T10, Peptide F (monkey PAR-2), N-terminal …; assay: peptide ELISA titration
Experimental: as §2, §5

[21] = target: T11, Peptide D (N-terminal domain of human PAR-2-mouse IgG2a) (Human); assay: peptide ELISA
T11 chain: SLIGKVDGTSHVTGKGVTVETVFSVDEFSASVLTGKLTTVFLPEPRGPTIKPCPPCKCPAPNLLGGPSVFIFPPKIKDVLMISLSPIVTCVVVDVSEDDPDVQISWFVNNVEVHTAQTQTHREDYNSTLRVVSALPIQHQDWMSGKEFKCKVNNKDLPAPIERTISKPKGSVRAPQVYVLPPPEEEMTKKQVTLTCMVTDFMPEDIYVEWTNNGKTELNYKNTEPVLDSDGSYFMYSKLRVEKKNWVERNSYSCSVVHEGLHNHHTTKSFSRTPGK

full length human PAR-2 [22] = target: T3, full length human PAR-2; assay: cell-based or functional assay; remark: listed apart in the source

- Kd [1]: 3.75 nM
- T1/2 [1]: 51.3 min
- Kd [2]: 128 nM
- T1/2 [2]: 7.3 min
- A450 ratio (293/D9/hPAR-2rec to 293/D9 cells) (full length human PAR-2 [3]): 2.03
- OD450 [4]: 1 to 4 od
- OD450 [5]: 1 to 4 od
- OD450 [6]: 1 to 4 od
- OD450 [7]: 1 to 4 od
- OD450 [8]: 1 to 4 od
- OD450 [9]: 0 to 0.09 od
- OD450 [10]: 1 to 4 od
- OD450 [11]: 0 to 0.09 od
- IC50, NF-kB-luciferase, 75 nM Trypsin (full length human PAR-2 [12]): 3.7 nM
- IC50, NF-kB-luciferase, 250 nM Trypsin (full length human PAR-2 [12]): 6.3 nM
B1: H2M589N (antibody, V domains shown)
VH: EVQLLESGGGLVQPGGSLRLSCATSGFTFSRYTMTWVRQAPGKGLFWVSGIGGSGGRAYYADSVKGRFTLSRDNSKNTLYLQMNSLRAEDTAVYYCAKEGDSGYDLDYWGRGTLVTVSS
VL: DIQMTQYPSSLSASVGDRVTITCRARQGISNYLAWLQQKPGKAPKSLIYAASSLQRGVPSKFSGSGSGTDFTLTISSLQPEDSATYYCQQYKISPLTFGGGTKVEIK
notes: chimeric: human variable, mouse constant domains

- Kd [1]: 4.22 nM
- T1/2 [1]: 42.7 min
- Kd [2]: 151 nM
- T1/2 [2]: 8.1 min
- A450 ratio (293/D9/hPAR-2rec to 293/D9 cells) (full length human PAR-2 [3]): 2.25
- OD450 [4]: 1 to 4 od
- OD450 [5]: 1 to 4 od
- OD450 [6]: 1 to 4 od
- OD450 [7]: 1 to 4 od
- OD450 [8]: 1 to 4 od
- OD450 [9]: 0 to 0.09 od
- OD450 [10]: 1 to 4 od
- OD450 [11]: 0 to 0.09 od
- Kd [13]: 1.82 nM
- T1/2 [13]: 94 min
- Kd [14]: 0.545 nM
- T1/2 [14]: 209 min
- IC50, NF-kB-luciferase, 10 nM Human Trypsin 1 (full length human PAR-2 [12]): 150 nM
- IC50, NF-kB-luciferase, 10 nM Trypsin (full length human PAR-2 [12]): 24.2 nM
- IC50, NF-kB-luciferase, 20 nM Trypsin (full length human PAR-2 [12]): 122 nM
- IC50, NF-kB-luciferase, 200 nM Factor Xa (full length human PAR-2 [12]): 51.5 nM
- IC50, NF-kB-luciferase, 250 nM Trypsin (full length human PAR-2 [12]): 4.5 nM
- IC50, NF-kB-luciferase, 750 nM Lung Tryptase (full length human PAR-2 [12]): 88.1 nM
B2: H2M591N (antibody, V domains shown)
VH: B1 VH
VL: B1 VL
notes: as for B1

- Kd [15]: 8.54 nM
- T1/2 [15]: 21 min
- IC50, NF-kB-luciferase, 10 nM Human Trypsin 1 (full length human PAR-2 [16]): 105 nM
- IC50, NF-kB-luciferase, 200 nM Factor Xa (full length human PAR-2 [16]): 74.6 nM
- IC50, NF-kB-luciferase, 750 nM Lung Tryptase (full length human PAR-2 [16]): 62.9 nM
- EC50 [17]: 0.01 nM
- EC50 [18]: 0.022 nM
- EC50 [19]: 0.016 nM
- EC50 [20]: 0.011 nM
- binding result [21]: binds
- IC50, NF-kB-luciferase, 20 nM Trypsin (full length human PAR-2 [22]): 204 nM
B3: H4H591N (antibody, human IgG4, V domains shown)
VH: B1 VH
VL: B1 VL
notes: also called H2M591N variable regions
